In patent US20090124791A1:

What was measured:
[1] = biological target: human B7.1 antigen (CD80) on cells (human) (UniProt P33681); assay: competition on B7.1 transfected CHO cells; competitor L307.4 (FIG. 8)
[2] = biological target: B7.1/Ig fusion protein (human) (UniProt P33681); assay: cell-based or functional assay
[3] = biological target: human B7.1 antigen (CD80), form not stated (human) (UniProt P33681); assay: surface plasmon resonance
[4] = biological target: B7.1/Ig fusion protein (human) (UniProt P33681); assay: competition of 125I-B7.1Ig binding to CD28 positive peripheral blood T lymphocytes

B7.1/Ig fusion protein (human), sequence (P33681 35-242): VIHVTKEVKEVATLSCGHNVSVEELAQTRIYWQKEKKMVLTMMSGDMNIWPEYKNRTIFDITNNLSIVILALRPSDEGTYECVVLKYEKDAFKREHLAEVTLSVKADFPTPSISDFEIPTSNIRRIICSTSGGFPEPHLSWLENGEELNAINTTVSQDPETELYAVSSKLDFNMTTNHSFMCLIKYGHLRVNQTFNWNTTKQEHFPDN
human B7.1 antigen (CD80) on cells (human), sequence (P33681 35-288): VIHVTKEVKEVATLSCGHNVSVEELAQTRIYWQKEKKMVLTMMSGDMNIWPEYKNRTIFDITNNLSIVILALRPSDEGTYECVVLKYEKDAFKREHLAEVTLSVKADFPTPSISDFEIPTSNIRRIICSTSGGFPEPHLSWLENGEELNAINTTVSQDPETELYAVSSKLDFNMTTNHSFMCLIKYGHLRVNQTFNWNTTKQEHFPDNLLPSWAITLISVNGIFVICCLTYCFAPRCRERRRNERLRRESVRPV
human B7.1 antigen (CD80), form not stated (human), sequence (P33681 35-242 limits assumed): as the sequence (P33681 35-242) above

| Substance | cross-reactivity (competition) with L307.4 [1] [%] | concentration for equivalent blocking of IL-2 against CTLA-4Ig, beads anti-CD3/B7 8:1 [2] [fold] | inhibition of IL-2, CD4+ T cells with anti-CD3/B7-Ig beads (8:1) [2] [%] | Kd [3] [nM] | IC50 [4] [µg/mL] |
| --- | --- | --- | --- | --- | --- |
| BB-1 murine anti-B7 antibody | 50 | – | – | – | – |
| primatized 16C10 (IDEC-114) (antibody) | – | 10 | 50 to 90 | 4 | < 1 |
